The results in this text go back to article PMC8002179.

The target in test [1] is wild type ACKR3 fused with Renilla luciferase (RLuc) on the C-terminal tail (human) (UniProt P25106).
Test [2] concerns the target β-arrestin2 tagged with the mVenus fluorescent protein (UniProt P32121). In words: BRET. Conditions: CXCL12 (100 nM), HEK293T cells, read off a plot.
Test [3] deals with β-arrestin1 tagged with the eYFP fluorescent protein (UniProt P49407). In words: BRET. To be noted: CXCL12 (100 nM), HEK293T cells, read at last time point (~56 min), read off a plot. In general terms: Bioluminescence resonance energy transfer reports proximity on the nanometre scale.

Chain of UniProt P25106 (P25106 whole entry, the tested form may be a part): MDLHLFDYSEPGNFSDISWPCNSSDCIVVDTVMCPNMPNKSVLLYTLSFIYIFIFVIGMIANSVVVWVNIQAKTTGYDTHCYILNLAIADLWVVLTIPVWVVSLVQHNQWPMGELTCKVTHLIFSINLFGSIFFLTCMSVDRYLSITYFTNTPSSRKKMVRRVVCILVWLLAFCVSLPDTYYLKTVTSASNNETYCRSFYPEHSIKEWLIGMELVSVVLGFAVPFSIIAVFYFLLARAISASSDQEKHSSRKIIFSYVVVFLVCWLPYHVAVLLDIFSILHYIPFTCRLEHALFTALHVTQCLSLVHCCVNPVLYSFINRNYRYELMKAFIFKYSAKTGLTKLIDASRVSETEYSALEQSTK
Chain of CXCL12 (P48061 22-93): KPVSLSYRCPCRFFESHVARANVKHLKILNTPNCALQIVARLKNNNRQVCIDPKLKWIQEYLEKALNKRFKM

In test [1], “CXCL12 (from UniProt P48061 22-93) (ligand)” yielded a pEC50 of CXCL12 for ACKR3-RLuc translocation to Rab5a-mVenus (early endosome sensor, BRET, HEK293T) of 9.1 pEC50; a pEC50 of CXCL12 for ACKR3-RLuc translocation to Rab11-mVenus (recycling endosome sensor, BRET, HEK293T) of 9.1 pEC50; a pEC50 of CXCL12 for GRK2-mVenus recruitment to ACKR3-RLuc (BRET, HEK293T) of 8.2 pEC50; a pEC50 of CXCL12 for GRK3-mVenus recruitment to ACKR3-RLuc (BRET, HEK293T) of 8.1 pEC50. In test [1], this substance had a pEC50 of CXCL12 for GRK5-mVenus recruitment to ACKR3-RLuc (BRET, HEK293T) of 8.3 pEC50; a pEC50 of CXCL12 for loss of ACKR3-RLuc co-localization with K-Ras-mVenus (cell membrane sensor, BRET, HEK293T) of 8.9 pEC50; a pEC50 of CXCL12 for β-arrestin1-eYFP recruitment to ACKR3-RLuc (BRET, HEK293T) of 8.1 pEC50; a pEC50 of CXCL12 for β-arrestin2-mVenus recruitment to ACKR3-RLuc (BRET, HEK293T) of 8.2 pEC50.
Regarding “wild type ACKR3 fused with Renilla luciferase (RLuc) on the C-terminal tail (from UniProt P25106) ST/A 350.355”, the response in test [2] (read at last time point (~56 min), parent: est. 1.17) was 1.14 fold vehicle; in test [3] (parent: est. 1.09), 1.01 fold vehicle.
As to “wild type ACKR3 fused with Renilla luciferase (RLuc) on the C-terminal tail (from UniProt P25106) full ST/A”, the response came out at 1.02 fold vehicle in test [2] (read at last time point (~33 min), parent: est. 1.13) and 1 fold vehicle in test [3] (parent: est. 1.11).
